In patent publication US20210292396A1:

How the values were obtained:
Assay in all cases: cell-based or functional assay
[1] = target: Env of HIV isolate CAP210.E8 (clade C) (HIV)
[2] = target: Env of HIV isolate 0330.v4.c3 (clade A) (HIV)
[3] = target: HIV Env of isolate MW965.26 (HIV)
[4] = target: Env of HIV isolate Q259.17 (clade A) (HIV)
[5] = target: HIV Env of isolate 6838.v1.c35 (HIV)
[6] = target: HIV Env of isolate CNE40 (HIV)
[7] = target: Env of HIV isolate BJOX002000.03.2 (clade BC) (HIV)
[8] = target: Env of HIV isolate 16845-2.22 (clade C) (HIV)
[9] = target: Env of HIV isolate CAP45.G3 (clade C) (HIV)
[10] = target: Env of HIV isolate 7165.18 (clade B) (HIV)
[11] = target: HIV Env of isolate ZM135.10a (HIV)
[12] = target: Env of HIV isolate BL01.DG (clade B) (HIV)
[13] = target: Env of HIV isolate TH976.17 (clade AE) (HIV)
[14] = target: Env of HIV isolate T257-31 (clade AG) (HIV)
[15] = target: Env of HIV isolate 3468.v1.c12 (clade AD) (HIV)
[16] = target: Env of HIV isolate CNE56 (clade AE) (HIV)
[17] = target: HIV Env of isolate ZM106.9 (HIV)
[18] = target: HIV Env of isolate CH070.1 (HIV)
[19] = target: HIV Env of isolate CH117.4 (HIV)
[20] = target: Env of HIV isolate BX08.16 (clade B) (HIV)
[21] = target: Env of HIV isolate CNE59 (clade AE) (HIV)
[22] = target: HIV Env of isolate 247-23 (HIV)
[23] = target: Env of HIV isolate CNE58 (clade C in Table 7) (HIV)
[24] = target: Env of HIV isolate 3589.v1.c4 (clade AC) (HIV)
[25] = target: Env of HIV isolate UG021.16 (clade D) (HIV)
[26] = target: Env of HIV isolate CNE8 (clade AE) (HIV)
[27] = target: HIV Env of isolate CNE31 (HIV)
[28] = target: Env of HIV isolate ZM233.6 (clade C) (HIV)
[29] = target: Env of HIV isolate ZA012.29 (clade C) (HIV)
[30] = target: Env of HIV isolate 3637.v5.c3 (clade C) (HIV)
[31] = target: Env of HIV isolate 57128.vrc15 (clade D) (HIV)
[32] = target: Env of HIV isolate TZBD.02 (clade C) (HIV)
[33] = target: HIV Env of isolate 231965.c01 (HIV)
[34] = target: Env of HIV isolate MN.3 (clade B) (HIV)
[35] = target: Env of HIV isolate 6540.v4.c1 (clade AC) (HIV)
[36] = target: Env of HIV isolate BS208.B1 (clade A) (HIV)
[37] = target: Env of HIV isolate 235-47 (clade AG) (HIV)
[38] = target: HIV Env of isolate ZM214.15 (HIV)
[39] = target: Env of HIV isolate QH209.14M.A2 (clade A) (HIV)
[40] = target: Env of HIV isolate 263-8 (clade AG) (HIV)
[41] = target: Env of HIV isolate T266-60 (clade AG) (HIV)
[42] = target: HIV Env of isolate Ce1176.A3 (HIV)
[43] = target: Env of HIV isolate RHPA.7 (clade B) (HIV)
[44] = target: HIV Env of isolate A07412M1.vrc12 (HIV)
[45] = target: Env of HIV isolate 269-12 (clade AG) (HIV)
[46] = target: Env of HIV isolate CNE57 (clade B) (HIV)
[47] = target: HIV Env of isolate DU422.01 (HIV)
[48] = target: Env of HIV isolate C2101.c1 (clade AE) (HIV)
[49] = target: Env of HIV isolate M02138 (clade AE) (HIV)
[50] = target: Env of HIV isolate KER2018.11 (clade A) (HIV)

B1: ePGT121.18 (ePGT121.18.H1 VH and ePGT121.17.L1 VL) (antibody, V domains shown)
VH: QMQLQESGPGLVKPGETLSLTCSVSGASISSSYWSWLRETPGKGLEWIGYTHHSGDTNYAPSLKSRVHLGLHPSKNQVSLSLTSVTAADTAVYYCARTLHGRRIYGVVAFNEYYTYFYWPTWGKGTQVTVSS
VL: SDISVAPGETVRITCGGESIGSRAVQWYQHRPGQAPRLIIYNNQDRPPGIPERFSGSPDIDFGTTATLTISNVEAGDEATYYCHIWDSRRPTNWELGPGTTLTVL
In the case of B1, the IC50, pseudovirus neutralization [1] is reported as 0.02 µg/mL, the IC50, pseudovirus neutralization [2] is reported as 0.003 µg/mL and the IC80, pseudovirus neutralization (M1) [3] is reported as 0.006 µg/mL. The IC80, pseudovirus neutralization (M2) [3] was 0.004 µg/mL, the IC50, pseudovirus neutralization [4] was > 50 µg/mL and the IC80, pseudovirus neutralization (M1) [5] was 2.59 µg/mL. For the same binder, the IC80, pseudovirus neutralization (M2) [5] was 13.4 µg/mL, the IC80, pseudovirus neutralization (M1) [6] was 0.047 µg/mL and the IC80, pseudovirus neutralization (M2) [6] was 0.047 µg/mL. It also gave an IC50, pseudovirus neutralization [7] of 0.002 µg/mL, an IC50, pseudovirus neutralization [8] of 0.036 µg/mL and an IC50, pseudovirus neutralization [9] of 1.74 µg/mL. The IC50, pseudovirus neutralization [10] was 0.001 µg/mL, the IC80, pseudovirus neutralization (M1) [11] was 0.14 µg/mL and the IC80, pseudovirus neutralization (M2) [11] was 0.188 µg/mL. For the same binder, the IC50, pseudovirus neutralization [12] was 6.91 µg/mL, the IC50, pseudovirus neutralization [13] was > 50 µg/mL and the IC50, pseudovirus neutralization [14] was > 50 µg/mL. For the same binder, the IC50, pseudovirus neutralization [15] was 0.001 µg/mL, the IC50, pseudovirus neutralization [16] was > 50 µg/mL and the IC80, pseudovirus neutralization (M1) [17] was 0.003 µg/mL. The IC80, pseudovirus neutralization (M2) [17] was 0.004 µg/mL, the IC80, pseudovirus neutralization (M1) [18] was 0.002 µg/mL and the IC80, pseudovirus neutralization (M2) [18] was 0.002 µg/mL. For the same binder, the IC80, pseudovirus neutralization (M1) [19] was > 50 µg/mL, the IC80, pseudovirus neutralization (M2) [19] was > 50 µg/mL and the IC50, pseudovirus neutralization [20] was 0.003 µg/mL. The IC50, pseudovirus neutralization [21] was > 50 µg/mL, the IC80, pseudovirus neutralization (M1) [22] was > 50 µg/mL and the IC80, pseudovirus neutralization (M2) [22] was > 50 µg/mL. The IC50, pseudovirus neutralization [23] was 0.016 µg/mL, the IC50, pseudovirus neutralization [24] was 0.252 µg/mL and the IC50, pseudovirus neutralization [25] was 0.006 µg/mL. For the same binder, the IC50, pseudovirus neutralization [26] was > 50 µg/mL, the IC80, pseudovirus neutralization (M1) [27] was 0.049 µg/mL and the IC80, pseudovirus neutralization (M2) [27] was 0.078 µg/mL. For the same binder, the IC50, pseudovirus neutralization [28] was 0.006 µg/mL, the IC50, pseudovirus neutralization [29] was 0.002 µg/mL and the IC50, pseudovirus neutralization [30] was > 50 µg/mL. The IC50, pseudovirus neutralization [31] was 0.004 µg/mL, the IC50, pseudovirus neutralization [32] was 0.002 µg/mL and the IC80, pseudovirus neutralization (M1) [33] was > 50 µg/mL. The IC80, pseudovirus neutralization (M2) [33] was > 50 µg/mL, the IC50, pseudovirus neutralization [34] was 0.002 µg/mL and the IC50, pseudovirus neutralization [35] was > 50 µg/mL. The IC50, pseudovirus neutralization [36] was > 50 µg/mL, the IC50, pseudovirus neutralization [37] was 0.006 µg/mL and the IC80, pseudovirus neutralization (M1) [38] was 0.053 µg/mL. For the same binder, the IC80, pseudovirus neutralization (M2) [38] was 0.067 µg/mL, the IC50, pseudovirus neutralization [39] was > 50 µg/mL and the IC50, pseudovirus neutralization [40] was 0.004 µg/mL. The IC50, pseudovirus neutralization [41] was 0.003 µg/mL, the IC80, pseudovirus neutralization (M1) [42] was 0.006 µg/mL and the IC80, pseudovirus neutralization (M2) [42] was 0.006 µg/mL. For the same binder, the IC50, pseudovirus neutralization [43] was 0.002 µg/mL, the IC80, pseudovirus neutralization (M1) [44] was 0.007 µg/mL and the IC80, pseudovirus neutralization (M2) [44] was 0.006 µg/mL. It also gave an IC50, pseudovirus neutralization [45] of 0.003 µg/mL, an IC50, pseudovirus neutralization [46] of 0.002 µg/mL and an IC80, pseudovirus neutralization (M1) [47] of 0.013 µg/mL. The IC80, pseudovirus neutralization (M2) [47] was 0.013 µg/mL, the IC50, pseudovirus neutralization [48] was > 50 µg/mL and the IC50, pseudovirus neutralization [49] was > 50 µg/mL. For the same binder, the IC50, pseudovirus neutralization [50] was > 50 µg/mL.

B2: ePGT121.15.H2.L1 (antibody, V domains shown)
VH: QMQLQESGPGLVKPGETLSLTCSVSGASISSSYWSWLRETPGKGLEWIGYTHHSGDTNYAPSLKSRVHLGLHPSKNQVSLSLTSVTAADTAVYYCARTLHGRRIYGVVAFNEWFTYFYWEVWGKGTQVTVSS
VL: SDISVAPGETVRISCGGESIGSRAVQWYQHRAGQAPKLIIYNNQDRPPGIPERFSGSPDIDFGTTATLTITNVEAGDEATYYCHIWDSRRPTNWVFGGGTTLTVL
For B2, the neutralization (Table 6 value) [33] was 0.285 and the neutralization (Table 6 value) [44] was 0.000944.
